According to patent publication US20230101046A1, “ANAPLASTIC LYMPHOMA KINASE CHIMERIC ANTIGEN RECEPTORS AND METHODS OF USE” (The Children's Medical Center Corporation, priority 2020, published 2023):
Residue numbers refer to the chain shown, from its start.

B1: ALK Antibody 7: mouse hybridoma anti-ALK antibody against extracellular domain of human ALK receptor; VL/VH sequences in Tables 1 and 2 (antibody, V domains shown)
VH: QVQLQQSGAELAKPGASVKLSCKASGYTFTSYWMHWVKQRPGQGLEWIGYINPSSGYTKYNQKFKDKATLTADKSSSTAYMQLSSLTFEDSAVYYCARDYYGSSSWFAYWGQGTLVTVSA
VL: DIVMTQSQKFMSTSVGDRVSVTCKASQNVGTNVAWYQQKPGHSPKALIYSASYRYSGVPDRFTGSGSGTDFTLTISNVQSEDLAEYFCQRYNSYPYMFTFGGGTKLEIKR
B2: ALK Antibody 5: mouse hybridoma anti-ALK antibody against extracellular domain of human ALK receptor; VL/VH sequences in Tables 1 and 2 (antibody, V domains shown)
VH: B1 VH with N52K, F88Y
VL: B1 VL with K9R, H42Q, R90Q, F98Y
B3: ALK Antibody 6: mouse hybridoma anti-ALK antibody against extracellular domain of human ALK receptor; VL/VH sequences in Tables 1 and 2 (antibody, V domains shown)
VH: DVKLVESGEGLVKPGGSLKLSCAASGFTFSSYAMSWVRQTPEKRLEWVTYISSGGDYIYYADTVKGRFTISRDNARNTLYLQMSSLKSEDTAMYYCTRERIWLRRFFDVWGTGTTVTVSS
VL: DIVMTQSQKFMSTSVGDRVSITCKASQNVGTAVAWYQLKPGQSPKLLIYSASNRFTGVPDRFTGSGSGTDFTLTISNMQSEDLADYFCQQYSSYPLTFGSGTKLEIKR
B4: ALK Antibody 1: mouse hybridoma anti-ALK antibody against extracellular domain of human ALK receptor; VL/VH sequences in Tables 1 and 2 (antibody, V domains shown)
VH: QVQLQQSGAELVKPGASVKISCKASGYAFSSYWMNWVKQRPGKGLEWIGQIYPGDGDTNYNGKFKGKATLTADKSSSTAYMQLSSLTSEDSAVYFCASYYYGSKAYWGQGTLVTVSA
VL: DIQMTQSPASLAASVGETVTITCRASENIYYSLAWYQQKQGKSPQLLIYNANSLEDGVPSRFSGSGSGTQYSMKINSMQPEDTATYFCKQAYDVPFTFGSGTKLEIKR
B5: ALK Antibody 3: mouse hybridoma anti-ALK antibody against extracellular domain of human ALK receptor; VL/VH sequences in Tables 1 and 2 (antibody, V domains shown)
VH: B1 VH with S31N, F88Y
VL: B1 VL with K9R, H42Q, I75V, R90Q, F98Y

Target: Mouse-ALK (Mus musculus, UniProt P97793)
Assay: Mouse-ALK binding of ALK antibodies
Description: (§1) Seven (7) ALK-specific antibodies (ALK Antibodies #1-#7) directed against the extracellular domain of human ALK receptor were evaluated for use in CAR-based immunotherapy.

Sequence of Mouse-ALK (P97793 19-1621): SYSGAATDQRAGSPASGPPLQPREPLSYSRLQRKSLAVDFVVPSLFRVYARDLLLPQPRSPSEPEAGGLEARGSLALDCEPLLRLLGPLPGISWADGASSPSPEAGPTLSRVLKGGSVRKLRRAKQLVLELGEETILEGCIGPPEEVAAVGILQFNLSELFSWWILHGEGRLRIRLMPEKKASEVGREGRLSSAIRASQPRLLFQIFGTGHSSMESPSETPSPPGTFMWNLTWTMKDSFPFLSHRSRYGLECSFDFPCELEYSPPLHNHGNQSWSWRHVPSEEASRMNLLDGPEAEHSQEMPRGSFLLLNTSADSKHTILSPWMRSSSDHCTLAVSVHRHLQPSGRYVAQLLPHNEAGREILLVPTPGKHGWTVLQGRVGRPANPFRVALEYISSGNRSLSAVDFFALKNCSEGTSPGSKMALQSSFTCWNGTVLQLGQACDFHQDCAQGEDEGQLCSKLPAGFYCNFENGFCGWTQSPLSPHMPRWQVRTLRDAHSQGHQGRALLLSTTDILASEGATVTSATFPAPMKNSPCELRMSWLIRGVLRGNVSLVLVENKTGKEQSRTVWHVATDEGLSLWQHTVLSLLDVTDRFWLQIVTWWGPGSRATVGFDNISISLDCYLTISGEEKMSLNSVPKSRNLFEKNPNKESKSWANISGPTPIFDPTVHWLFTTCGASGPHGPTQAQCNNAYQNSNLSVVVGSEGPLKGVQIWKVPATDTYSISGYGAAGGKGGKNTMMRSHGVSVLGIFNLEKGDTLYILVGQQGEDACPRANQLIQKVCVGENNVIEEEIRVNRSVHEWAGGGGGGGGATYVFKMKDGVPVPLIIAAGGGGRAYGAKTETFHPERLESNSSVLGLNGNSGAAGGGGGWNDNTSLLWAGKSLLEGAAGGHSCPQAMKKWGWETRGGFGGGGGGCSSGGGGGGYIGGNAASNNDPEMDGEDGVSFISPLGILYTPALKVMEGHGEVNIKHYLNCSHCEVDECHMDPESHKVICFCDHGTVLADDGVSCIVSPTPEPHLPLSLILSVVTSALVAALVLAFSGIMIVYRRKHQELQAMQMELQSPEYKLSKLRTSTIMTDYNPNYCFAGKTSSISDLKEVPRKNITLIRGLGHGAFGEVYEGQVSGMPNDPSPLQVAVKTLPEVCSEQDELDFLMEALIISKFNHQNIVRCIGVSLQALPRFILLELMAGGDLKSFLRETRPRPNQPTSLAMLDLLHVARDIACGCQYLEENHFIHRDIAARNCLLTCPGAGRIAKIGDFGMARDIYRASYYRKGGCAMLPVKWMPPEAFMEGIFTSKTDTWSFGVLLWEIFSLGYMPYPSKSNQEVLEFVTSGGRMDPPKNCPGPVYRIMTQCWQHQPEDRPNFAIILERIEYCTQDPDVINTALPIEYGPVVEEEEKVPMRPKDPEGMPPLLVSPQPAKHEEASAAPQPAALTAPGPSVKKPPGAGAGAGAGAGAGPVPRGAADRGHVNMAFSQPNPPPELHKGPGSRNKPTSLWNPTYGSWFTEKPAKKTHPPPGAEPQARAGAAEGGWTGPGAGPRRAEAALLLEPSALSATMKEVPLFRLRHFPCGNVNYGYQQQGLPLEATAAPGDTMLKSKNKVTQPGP

recognition of human and murine ALK	Molecule
recognize both the human and murine ALK	B1
recognize both the human and murine ALK	B2
recognize both the human and murine ALK	B3

Target: ALK (Homo sapiens, UniProt Q9UM73)
Assay: ALK phosphorylation / ALK signaling activity of ALK antibodies
Format: cell-based
Description: as §1

Sequence of ALK (Q9UM73 19-1620): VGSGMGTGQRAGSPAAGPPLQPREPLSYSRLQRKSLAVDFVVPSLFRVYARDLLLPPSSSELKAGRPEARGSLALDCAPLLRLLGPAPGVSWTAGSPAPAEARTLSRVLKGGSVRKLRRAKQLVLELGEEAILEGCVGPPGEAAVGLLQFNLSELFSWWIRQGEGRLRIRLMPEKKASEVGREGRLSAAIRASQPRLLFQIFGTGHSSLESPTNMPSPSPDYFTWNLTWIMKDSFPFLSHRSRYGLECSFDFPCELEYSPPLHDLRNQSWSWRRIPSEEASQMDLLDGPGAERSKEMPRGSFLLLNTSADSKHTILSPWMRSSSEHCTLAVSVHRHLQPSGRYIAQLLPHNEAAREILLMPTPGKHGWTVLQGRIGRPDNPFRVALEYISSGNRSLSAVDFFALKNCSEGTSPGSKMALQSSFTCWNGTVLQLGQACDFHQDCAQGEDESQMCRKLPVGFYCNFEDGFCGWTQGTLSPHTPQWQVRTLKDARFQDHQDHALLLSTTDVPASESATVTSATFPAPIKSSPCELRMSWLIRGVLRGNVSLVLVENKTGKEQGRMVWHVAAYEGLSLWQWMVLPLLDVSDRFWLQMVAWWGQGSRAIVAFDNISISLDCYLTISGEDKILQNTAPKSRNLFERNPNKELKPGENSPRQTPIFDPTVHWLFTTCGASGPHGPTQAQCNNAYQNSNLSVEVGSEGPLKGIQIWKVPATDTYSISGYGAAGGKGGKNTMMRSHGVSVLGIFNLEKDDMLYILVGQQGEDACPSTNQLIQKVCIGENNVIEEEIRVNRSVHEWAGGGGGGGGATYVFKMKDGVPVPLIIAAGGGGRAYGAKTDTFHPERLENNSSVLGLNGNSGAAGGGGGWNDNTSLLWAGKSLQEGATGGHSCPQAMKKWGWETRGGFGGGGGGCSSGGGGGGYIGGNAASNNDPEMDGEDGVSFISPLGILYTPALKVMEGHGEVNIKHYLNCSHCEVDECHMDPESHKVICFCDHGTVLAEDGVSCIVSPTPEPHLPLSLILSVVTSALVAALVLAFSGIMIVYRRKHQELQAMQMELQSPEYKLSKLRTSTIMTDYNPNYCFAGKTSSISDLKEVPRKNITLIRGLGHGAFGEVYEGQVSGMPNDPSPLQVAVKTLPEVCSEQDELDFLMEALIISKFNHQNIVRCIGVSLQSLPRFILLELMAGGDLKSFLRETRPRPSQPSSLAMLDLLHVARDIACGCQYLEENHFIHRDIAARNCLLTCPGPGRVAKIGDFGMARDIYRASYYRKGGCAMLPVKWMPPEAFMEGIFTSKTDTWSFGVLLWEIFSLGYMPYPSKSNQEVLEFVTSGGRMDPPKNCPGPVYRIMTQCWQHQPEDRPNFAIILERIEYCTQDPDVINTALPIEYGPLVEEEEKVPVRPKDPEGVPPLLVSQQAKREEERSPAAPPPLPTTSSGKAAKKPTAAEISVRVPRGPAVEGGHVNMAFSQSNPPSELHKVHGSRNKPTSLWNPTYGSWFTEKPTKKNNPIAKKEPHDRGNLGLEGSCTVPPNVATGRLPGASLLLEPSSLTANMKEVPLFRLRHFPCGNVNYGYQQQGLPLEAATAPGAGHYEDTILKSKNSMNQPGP

activity on ALK signaling	Molecule
no effect on ALK signaling	B4
agonistic of ALK signaling	B1
inhibited ALK signaling	B5
inhibited ALK signaling	B2
inhibited ALK signaling	B3
